Earlier results as cited in paper PMC4237619.
Where two headings read alike, the source gives them in different places. Each block holds one substance with its values, some of them ahead of it.

Tests used:
[1] = target: VEGF (Homo sapiens) (UniProt P15692)
[2] = target: VEGF (Homo sapiens) (UniProt P15692); remark: listed apart in the source
[3] = target: VEGF (Homo sapiens) (UniProt P15692); remark: listed apart in the source

Chain of UniProt P15692 (P15692 whole entry): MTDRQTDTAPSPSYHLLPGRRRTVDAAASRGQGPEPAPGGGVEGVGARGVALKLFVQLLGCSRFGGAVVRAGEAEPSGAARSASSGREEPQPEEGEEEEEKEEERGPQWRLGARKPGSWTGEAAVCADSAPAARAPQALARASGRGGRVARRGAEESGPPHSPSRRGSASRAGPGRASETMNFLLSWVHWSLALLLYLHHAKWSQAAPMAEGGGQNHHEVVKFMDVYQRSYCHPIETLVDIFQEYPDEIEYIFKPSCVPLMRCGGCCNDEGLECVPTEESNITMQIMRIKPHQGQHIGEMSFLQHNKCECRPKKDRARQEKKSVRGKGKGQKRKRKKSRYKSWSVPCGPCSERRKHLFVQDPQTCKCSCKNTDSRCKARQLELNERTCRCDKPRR

Kd [1]: 910 nM
Substance: NH2-GGGG-SY(SO3)DY(SO3)GGGG-OH peptide

Kd [2]: 3100 nM
Substance: SY(SO3)DY(SO3)G peptide

Kd [3]: 0.33 nM
Substance: ATWLPPR peptide
